Measurements as given in patent US7521540B2, “CYR61 compositions and methods” (Munin Corporation, priority 1996, dated 2009).

Columns and labels:
[1] = test system: 1064SK primary human foreskin fibroblasts; assay: Fibroblast adhesion assay (methylene blue, A620); assay type: cell-based; details: for inhibition by anti-α6 antibody of binding mediated by the coated protein: anti-α6 20 μg/ml; for support of 1064SK fibroblast adhesion: protein coated on wells
Protocol: The ability of Cyr61 to mediate cell adhesion in normal fibroblasts was investigated. Microtiter wells were coated with purified recombinant Cyr61 protein, and 1064SK primary human foreskin fibroblasts were allowed to adhere under serum-free conditions. […] 50 μl cell suspensions were plated on microtiter wells coated with varying concentrations (0.5-5.0 μg/ml) of Cyr61 protein. After incubation at 37° C. for 30 minutes, adherent cells were fixed and stained with methylene blue.
In another experiment, microtiter wells were coated with either BSA, Cyr61 (2 μg/ml), or vitronectin (VN; 0.5 μg/ml) and blocked with affinity-purified anti-Cyr61 antibodies for one hour at 37° C. before 1064SK cells were plated.
The effects of divalent cations in cell adhesion to Cyr61 was also investigated. […] Data are means from triplicate determinations. […] Inhibition by Ca^2+ is characteristic of adhesion through some members of the β1 family of integrins, including receptors that bind type I collagen, laminin, and vitronectin (integrins α2β1, α6β1, and αVβ1) in fibroblasts, as well as the lymphocyte-specific integrin αLβ2.
The effects of RGD peptides on Cyr61-mediated fibroblast binding was tested by plating cells in wells coated with Cyr61 (2 μg/ml). Type I collagen (2 μg/ml) or vitronectin (0.5 μg/ml), 2 mM GRGDSP or GRGESP peptide was then added.
Cells were also pre-incubated with 40 μg/ml monoclonal antibodies against the integrin α5 or the integrin αV subunits at room temperature for 30 minutes, then plated on wells coated with Cyr61 (2 μg/ml), vitronectin (0.5 μg/ml) or fibronectin (FN, 1 μg/ml). […] The data are means, representative of three experiments.
The 1064 SK cells were also analyzed using the monoclonal antibody JBIA, which binds the β1 integrin subunit. Cells were pre-incubated with the antibody (50 μg/ml) before plating on microtiter wells coated with Cyr61 (2 μg/ml), Type I collagen (2 μg/ml), or vitronectin (0.5 μg/ml). […] Data are means, representative of three experiments.
To identify the specific β1 integrin that mediates fibroblast adhesion to Cyr61, the inhibitory effects of function-blocking monoclonal antibodies were tested against various integrin α subunits. […] The data are means, representative of at least three experiments.

[2] = Heparin binding assay (salt elution from heparin-Sepharose/agarose)

| inhibition by anti-α6 antibody of binding mediated by the coated protein [1] [%] | Molecule | support of 1064SK fibroblast adhesion [1] | heparin binding [2] | concentration that inhibited cell adhesion to Cyr61 ([1]; in cell suspension) [µg/mL] | 1064SK adhesion to Cyr61-coated wells with agent ([1]; Cyr61 2 μg/ml, agent at the level stated in the block, Mg2+ 5.0 mM after EDTA) [A620] | 1064SK adhesion to fibronectin-coated wells with agent ([1]; fibronectin 1 μg/ml) [A620] | 1064SK adhesion to vitronectin-coated wells with agent ([1]; vitronectin 0.5 μg/ml) [A620] |
| --- | --- | --- | --- | --- | --- | --- | --- |
| 70 | H2: Cyr61 variant, heparin-binding motif at residues 305-310 replaced with alanine (protein) TCPAACHCPLEAPKCAPGVGLVRDGCGCCKVCAKQLNEDCSKTQPCDHTKGLECNFGASSTALKGICRAQSEGRPCEYNSRIYQNGESFQPNCKHQCTCIDGAVGCIPLCPQELSLPNLGCPNPRLVKVSGQCCEEWVCDEDSIKDSLDDQDDLLGLDASEVELTRNNELIAIGKGSSLKRLPVFGTEPRVLFNPLHAHGQKCIVQTTSWSQCSKSCGTGISTRVTNDNPECRLVKETRICEVRPCGQPVYSSLKKGKKCSKTKKSPEPVRFTYAGCSSVVAAYAPYCGSCVDGRCCTPLQTRTVKMRFRCEDGEMFSKNVMMIQSCKCNYNCPHPNEASFRLYSLFNDIHKFRD | able to support fibroblast adhesion | somewhat decreased heparin-binding affinities | – | – | – | – |
| 69 | H1: Cyr61 variant, lysine/arginine of heparin-binding motif at residues 280-290 replaced with alanine (protein) TCPAACHCPLEAPKCAPGVGLVRDGCGCCKVCAKQLNEDCSKTQPCDHTKGLECNFGASSTALKGICRAQSEGRPCEYNSRIYQNGESFQPNCKHQCTCIDGAVGCIPLCPQELSLPNLGCPNPRLVKVSGQCCEEWVCDEDSIKDSLDDQDDLLGLDASEVELTRNNELIAIGKGSSLKRLPVFGTEPRVLFNPLHAHGQKCIVQTTSWSQCSKSCGTGISTRVTNDNPECRLVKETRICEVRPCGQPVYSSLKKAGAACSATAKPEPVRFTYAGCSSVKKYRPKYCGSCVDGRCCTPLQTRTVKMRFRCEDGEMFSKNVMMIQSCKCNYNCPHPNEASFRLYSLFNDIHKFRD | able to support fibroblast adhesion | somewhat decreased heparin-binding affinities | – | – | – | – |

The remaining lines, values behind:

| Molecule | inhibition by anti-α6 antibody of binding mediated by the coated protein [1] [%] | support of 1064SK fibroblast adhesion [1] | heparin binding [2] | concentration that inhibited cell adhesion to Cyr61 ([1]; in cell suspension) [µg/mL] | 1064SK adhesion to Cyr61-coated wells with agent ([1]; Cyr61 2 μg/ml, agent at the level stated in the block, Mg2+ 5.0 mM after EDTA) [A620] | 1064SK adhesion to fibronectin-coated wells with agent ([1]; fibronectin 1 μg/ml) [A620] | 1064SK adhesion to vitronectin-coated wells with agent ([1]; vitronectin 0.5 μg/ml) [A620] |
| --- | --- | --- | --- | --- | --- | --- | --- |
| decorin: Decorin from Sigma (protein, UniProt P21793 31-360, looked up) Decorin: DEASGIGPEEHFPEVPEIEPMGPVCPFRCQCHLRVVQCSDLGLEKVPKDLPPDTALLDLQNNKITEIKDGDFKNLKNLHTLILINNKISKISPGAFAPLVKLERLYLSKNQLKELPEKMPKTLQELRVHENEITKVRKSVFNGLNQMIVVELGTNPLKSSGIENGAFQGMKKLSYIRIADTNITTIPQGLPPSLTELHLDGNKITKVDAASLKGLNNLAKLGLSFNSISAVDNGSLANTPHLRELHLNNNKLVKVPGGLADHKYIQVVYLHNNNISAIGSNDFCPPGYNTKKASYSGVSLFSNPVQYWEIQPSTFRCVYVRAAVQLGNYK | – | – | – | 10 | – | – | – |
| heparatinase: Enzyme used to pretreat cells (heparinase I, 2 U/ml) (protein, UniProt Q05819 22-384, looked up) Heparin lyase I: QQKKSGNIPYRVNVQADSAKQKAIIDNKWVAVGINKPYALQYDDKLRFNGKPSYRFELKAEDNSLEGYAAGETKGRTELSYSYATTNDFKKFPPSVYQNAQKLKTVYHYGKGICEQGSSRSYTFSVYIPSSFPDNATTIFAQWHGAPSRTLVATPEGEIKTLSIEEFLALYDRMIFKKNIAHDKVEKKDKDGKITYVAGKPNGWKVEQGGYPTLAFGFSKGYFYIKANSDRQWLTDKADRNNANPENSEVMKPYSSEYKTSTIAYKMPFAQFPKDCWITFDVAIDWTKYGKEANTILKPGKLDVMMTYTKNKKPQKAHIVNQQEILIGRNDDDGYYFKFGIYRVGNSTVPVTYNLSGYSETAR | – | – | – | – | 0.13 | 0.66 | 0.63 |
